Reference: US20070286806A1, “Methods and Compositions for Modulating a Steroid Receptor” (Mount Sinai Hospital, priority 2004, published 2007)

Columns and labels:
PRA = target: T1, PRA (Homo sapiens, UniProt P06401); test: Transactivation of progesterone responsive promoters (3xPRE-Luc, MMTV-Luc) by PRA in SHM cells; assay type: cell-based; settings: 10 nM progesterone, increasing dose of His-PSF vector
T1 construct: expressed in transfected cells; host or cells: SHM (Syrian hamster myocyte) cells
T1 sequence (P06401 1-769 isoform P06401-2): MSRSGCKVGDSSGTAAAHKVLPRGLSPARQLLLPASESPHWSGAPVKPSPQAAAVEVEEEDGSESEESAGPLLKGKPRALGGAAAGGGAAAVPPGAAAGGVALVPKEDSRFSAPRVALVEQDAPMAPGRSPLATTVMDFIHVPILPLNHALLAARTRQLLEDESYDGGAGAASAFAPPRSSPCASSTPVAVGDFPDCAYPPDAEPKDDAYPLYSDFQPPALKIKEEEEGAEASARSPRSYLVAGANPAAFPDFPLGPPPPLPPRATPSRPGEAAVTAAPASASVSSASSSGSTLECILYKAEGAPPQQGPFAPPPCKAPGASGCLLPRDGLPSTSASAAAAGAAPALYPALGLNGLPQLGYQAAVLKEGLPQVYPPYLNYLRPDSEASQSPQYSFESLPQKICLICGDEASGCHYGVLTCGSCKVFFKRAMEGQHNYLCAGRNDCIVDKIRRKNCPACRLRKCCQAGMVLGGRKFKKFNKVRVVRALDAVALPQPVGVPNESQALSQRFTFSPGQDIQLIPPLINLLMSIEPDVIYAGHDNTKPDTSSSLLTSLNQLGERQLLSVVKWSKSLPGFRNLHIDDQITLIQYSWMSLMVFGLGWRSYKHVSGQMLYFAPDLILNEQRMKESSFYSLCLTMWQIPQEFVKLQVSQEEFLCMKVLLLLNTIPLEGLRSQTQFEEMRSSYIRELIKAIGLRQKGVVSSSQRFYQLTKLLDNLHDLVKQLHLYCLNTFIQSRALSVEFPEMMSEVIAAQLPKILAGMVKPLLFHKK
Experimental: (§1) FIG. 4. PSF inhibit transactivation of PR but not estrogen receptor (ER). (A) SHM cells were transient cotransfected with PRA or PRB expression vectors with or without increasing dose (0.05, 0.1 and 0.2 μg) of His-PSF, together with 3×PRE (upper) or MMTV (lower) luciferase reporter vector. Four hours after transfection, culture medium was replaced with fresh DMEM containing 10 nM progesterone and the incubation continued for at least 30 hours. (B) SHM cells were transiently cotransfected with ERα or ERβ expression vector with (0.2 μg) or without His-PSF, together with 3×ERE luciferase reporter vector. Four hours after transfection, culture medium was replaced with fresh DMEM with (solid bar) or without (empty bar) 10 nM estrodial and incubation continued for at least 30 hours. Luciferase activity was measured and normalized by β-galatosidase activity. […]
(§2) For immunoprecipitation of the endogenous PR and PSF, T47D cells cultured in 150 mm dishes were lysed in 800 μl NETN buffer containing 150 mM NaCl plus protease inhibitor cocktail. […] Gels were treated with Enhancer (NEN, Boston, US) dried and analyzed by autoradiography. • Cell culture and transient transfection: SHM cells and 293T cells were maintained in DMEM plus 5% FCS (Sigma) as described before (22). […] Luciferase activity was determined by using the luciferin reagent (Promega) according to manufacture's protocol. […]

ERα = target: T2, ERα (Homo sapiens, UniProt P03372); test: ERα transactivation, 3xERE luciferase reporter in SHM cells; assay type: cell-based; settings: 3xERE promoter
T2 construct: expressed in transfected cells; host or cells: SHM (Syrian hamster myocyte) cells
T2 sequence (P03372 1-595): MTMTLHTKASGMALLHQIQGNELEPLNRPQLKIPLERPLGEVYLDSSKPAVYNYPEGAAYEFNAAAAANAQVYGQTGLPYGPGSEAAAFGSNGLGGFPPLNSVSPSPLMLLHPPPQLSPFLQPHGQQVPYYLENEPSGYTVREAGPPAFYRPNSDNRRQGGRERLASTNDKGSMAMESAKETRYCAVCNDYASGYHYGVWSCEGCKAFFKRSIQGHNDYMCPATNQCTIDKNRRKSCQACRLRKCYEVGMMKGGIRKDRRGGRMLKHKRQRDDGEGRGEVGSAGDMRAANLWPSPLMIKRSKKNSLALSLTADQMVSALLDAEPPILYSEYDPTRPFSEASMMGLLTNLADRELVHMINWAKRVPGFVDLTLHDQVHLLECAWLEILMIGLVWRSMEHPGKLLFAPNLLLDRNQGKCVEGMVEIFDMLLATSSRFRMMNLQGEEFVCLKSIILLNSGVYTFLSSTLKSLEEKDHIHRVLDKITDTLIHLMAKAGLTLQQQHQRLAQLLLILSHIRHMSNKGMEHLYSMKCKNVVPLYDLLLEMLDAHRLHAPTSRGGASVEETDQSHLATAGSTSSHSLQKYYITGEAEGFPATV
Experimental: as §1, §2

B1: polypyrimidine tract binding protein-associated splicing factor (protein)
chain: MSRDRFRSRGGGGGGFHRRGGGGGRGGLHDFRSPPPGMGLNQNRGPMGPGPGQSGPKPPIPPPPPHQQQQQPPPQQPPPQQPPPHQPPPHPQPHQQQQPPPPPQDSSKPVVAQGPGPAPGVGSAPPASSSAPPATPPTSGAPPGSGPGPTPTPPPAVTSAPPGAPPPTPPSSGVPTTPPQAGGPPPPPAAVPGPGPGPKQGPGPGGPKGGKMPGGPKPGGGPGLSTPGGHPKPPHRGGGEPRGGRQHHPPYHQQHHQGPPPGGPGGRSEEKISDSEGFKANLSLLRRPGEKTYTQRCRLFVGNLPADITEDEFKRLFAKYGEPGEVFINKGKGFGFIKLESRALAEIAKAELDDTPMRGRQLRVRFATHAAALSVRNLSPYVSNELLEEAFSQFGPIERAVVIVDDRGRSTGKGIVEFASKPAARKAFERCSEGVFLLTTTPRPVIVEPLEQLDDEDGLPEKLAQKNPMYQKERETPPRFAQHGTFEYEYSQRWKSLDEMEKQQREQVEKNMKDAKDKLESEMEDAYHEHQANLLRQDLMRRQEELRRMEELHNQEMQKRKEMQLRQEEERRRREEEMMIRQREMEEQMRRQREESYSRMGYMDPRERDMRMGGGGAMNMGDPYGSGGQKFPPLGGGGGIGYEANPGVPPATMSGSMMGSDMRTERFGQGGAGPVGGQGPRGMGPGTPAGYGRGREEYEGPNKKPRF
notes: expressed from transfected His-PSF vector or in vitro translated
PRA
  PRA transactivation of MMTV and 3xPRE promoters: potently inhibited
ERα
  inhibitory effects on ERα: not observed
